Laboratory results from PMC10692146 (2023).
Where no end group is shown, it is not given here.

Columns and labels:
[1] = biological target: T1, reduced p38α (MAPK14), recombinant mouse protein kept with reducing agent (DTT or TCEP) (mouse, UniProt P47811 1-360); assay: ITC; oxidized p38α re-reduced by dialysis with TCEP
[2] = biological target: T1, reduced p38α (MAPK14), recombinant …; assay: ITC

T1 sequence (P47811 whole entry): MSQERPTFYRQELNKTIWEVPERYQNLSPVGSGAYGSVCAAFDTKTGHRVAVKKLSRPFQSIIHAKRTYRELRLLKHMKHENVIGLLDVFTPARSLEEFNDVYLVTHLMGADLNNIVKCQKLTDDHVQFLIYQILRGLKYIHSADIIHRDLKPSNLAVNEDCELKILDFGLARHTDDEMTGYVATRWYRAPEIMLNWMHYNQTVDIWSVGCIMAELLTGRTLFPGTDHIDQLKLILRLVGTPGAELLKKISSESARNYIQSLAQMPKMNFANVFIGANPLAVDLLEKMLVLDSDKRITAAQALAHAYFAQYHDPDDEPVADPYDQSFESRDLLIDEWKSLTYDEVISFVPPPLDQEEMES

Binder RVYPVSVPYSSAQSTSKTSVTLSLVMPSQ (also: FITC label, end not given here) [FITC-TAB1 peptide (amino acids 384-412 of TAB1)] has a Kd [1] of 2660 nM and a Kd [2] of 1200 nM.
